This note sets out measurements from patent US8383797B2, “Luciferase gene optimized for use in imaging of intracellular luminescence” (Toyo Boseki Kabushiki Kaisha, priority 2005, dated 2013).

Series [1] has as its system cultured fibroblast NIH3T3 cells. As to the kind of experiment: Real-time monitoring of luminescence under control of the Bmal1 promoter in living cells. To be noted: PEST-fused luciferase, NIH3T3, 200 μM D-luciferin. The series is classed as cell-based. The method, then: Short lifespan-type luciferase was made by ligating a PEST sequence (SEQ ID NO: 7) of murine ornithine decarboxylase to a wild-type (SEQ ID NO: 1) and improved-type (SEQ ID NO: 2) click beetle luciferase cDNA. Vectors in which these had been inserted downstream of a murine circadian clock gene Bmal1 promoter (GenBank Accession No. AB064982) were made. Subsequently, 1 μg of each vector was introduced into cultured fibroblast NIH3T3 cells seeded in a 35 mm culture dish by a lipofection method (LipofectAMINE PLUS, Invitrogen), and the cells were cultured at 37° C. for 24 hours and treated with a DMEM medium containing 100 nM dexamethasone for 2 hours. The medium was replaced with a DMEM medium containing 200 μM D-luciferin and 10% (w/v) bovine serum, and then one minute of luminescence was measured every 15 minutes for 5 days in real time using a real-time gene expression measurement apparatus (AB2500 supplied from ATTO Corporation) (FIG. 1A).

For series [2] the test system is unchanged. As to the kind of experiment: Transient assay of Bmal1 promoter activity, luminescence of cell extract. The conditions noted are these: PEST-fused luciferase, NIH3T3, cell lysate, luminometer. The format is cell-based. As for the experimental part: The aforementioned reporter vector (200 ng) was introduced into the cultured fibroblast NIH3T3 cells seeded in a 24-well plate by the lipofection method, the cells were cultured at 37° C. for 24 hours, and disrupted with 300 μL of a cell lysis agent (cultured cell lysis agent for PicaGene Dual Seapansy supplied from Toyo Ink MFG Co., Ltd.). A luminescent substrate solution (50 μL) (PicaGene luminescence reagent II) was added to a cell extract solution (50 μL), and 20 seconds of luminescence was measured using a luminometer (AB2250 supplied from ATTO Corporation) (FIG. 1B).

Series [3] has as its system cultured fibroblast rat1 cells. The series can be described thus: Real-time monitoring of luminescence under control of the Bmal1 promoter in living cells. The series is classed as cell-based. The conditions noted are these: PEST-fused luciferase, luminescence amount integrated within 24 hours. As for the experimental part: Short lifespan-type luciferase was made by ligating the PEST sequence (SEQ ID NO: 7) of murine ornithine decarboxylase to firefly luciferase cDNA (Luc(+), supplied from Promega) derived from Photinus pyralis produced in North America and improved-type click beetle luciferase cDNA (SEQ ID NO: 2). Vectors in which these had been inserted downstream of a murine circadian clock gene Bmal1 promoter (GenBank Accession No. AB064982) were made. Subsequently, 1 μg of each vector was introduced into cultured fibroblast rat1 cells seeded in a 35 mm culture dish by the lipofection method (LipofectAMINE PLUS), and the cells were cultured at 37° C. for 24 hours and treated with the DMEM medium containing 100 nM dexamethasone for 2 hours. The medium was replaced with a DMEM medium containing 200 μM D-luciferin and 10% (w/v) bovine serum, and then one minute of luminescence was measured every 15 minutes for 5 days using the real-time gene expression measurement apparatus (AB2500 supplied from ATTO Corporation) (FIG. 2).

For series [4], the system named is cultured fibroblast NIH3T3 cells. The series can be described thus: Bioluminescence imaging of cells expressing FLAG-tagged luciferase. The format is cell-based. To be noted: CMV promoter, FLAG tag, NIH3T3, 200 μM D-luciferin, CCD camera, three minutes. The method, then: A FLAG tag sequence (MDYDDDDK; SEQ ID NO: 15) was ligated to the N terminus of the firefly luciferase cDNA (Luc(+), supplied from Promega) derived from Photinus pyralis produced in North America and the improved-type click beetle luciferase cDNA (SEQ ID NO: 2). The expression vector (2 μg) obtained by inserting one of them downstream of the CMV promoter was introduced in the cultured fibroblast NIH3T3 cells by the lipofection method, and the cells were cultured at 37° C. for 24 hours. Subsequently, the medium was replaced with a DMEM medium containing 200 μM D-luciferin and 10% (w/v) bovine serum, and three minutes of bioluminescence was measured using a CCD camera (Cellgraph supplied from ATTO Corporation) cooled to −60° C.

The next series deals with HeLa S3 cells. As to the kind of experiment: Analysis of AP1 response sequence in living cells, 96-well plate. The series is classed as cell-based. To be noted: HeLa S3, TPA or EGF stimulation, 0.2 mM D-luciferin. As for the experimental part:
HeLa S3 cells were seeded at 3×10^4 cells (100 μL) per well in a 96-well white opaque plate, and cultured in Dulbecco's Modified Eagle's Medium DMEM (Nissui Pharmaceutical Co., Ltd.) containing 10% FCS. The following day, 0.2 μg per well of the plasmid pELuc-AP1 or pGL3-AP1 (diluted with 25 μL of DMEM containing no FCS) and 0.5 μL of Lipofectamine 2000 transfection reagent (Invitrogen, diluted with 25 μL of DMEM)) were mixed and added to the cells in the medium replaced with 100 μL of DMEM+0.1% FCS, which was incubated for 24 hours to introduce the gene. The following day, the medium was either not replaced, or replaced with DMEM+0.1% FCS (further containing 0.2 mM D-luciferin) containing 0.01 μM TPA (Sigma), 0.1 μM TPA, 1 μM TPA or 10 ng/mL of EGF, and the cells were incubated for 5 hours. Subsequently, the luminescence was measured using a plate reader 1420 ARVOMX (Perkin Elmer). In the graph for measurement values, readout values were plotted, and in the graph for induction ratios, an expression induction ratio at each concentration calculated when the value in an additive-free condition equaled 1 was plotted.

Series [5] is described as follows: pH dependency of luminescence of recombinant luciferase enzyme preparations. The series is classed as biochemical. To be noted: pH 6.6 to 8.8, relative activity with pH 8.0 set as 100. As for the experimental part:
A click beetle-derived luciferase enzyme preparation was acquired as a recombinant body by inserting the luciferase gene PtGRm in the vector pELuc-test (Toyobo Co., Ltd.) into the expression vector for Escherichia coli and expressing it in Escherichia coli. As a firefly luciferase enzyme preparation, QuantiLum Recombinant Luciferase (Promega, described as fLuc in the figure) was used. For each enzyme preparation, a luminescence reagent containing 15 mM MgSO4, 6 mM EDTA, 4 mM Co-enzyme A, 1.2 mM D-luciferin, 6 mM DTT, 0.2% Nonidet P40, 2 mM ATP and 2 μg/mL of the enzyme preparation was prepared. Then, 100 μL of ATP solution at […], 0.2 mM or 1 mM and 100 μL of 100 mM Hepes-NaOH pH 6.6 to 8.8 were mixed, and the luminescence was measured.
A graph of luminescence measurement values and a graph obtained by plotting the relative activity at each pH when the measurement value at pH 8.0 was set as 100 in each luciferase are shown in FIG. 12.

Some results are limits rather than exact numbers.

B1: improved-type click beetle luciferase: Pyrearinus termitilluminans click beetle luciferase expressed from the modified gene of SEQ ID NO: 2 (protein)
chain: MEREKNVVYGPEPKHPLGNFTAGEMLYNALHKHSHIPQAILDVMGNESLSYQEFFDTTVKLGQSLQNCGYKMNDVVSICAENNKRFFIPIISAWYIGMVVAPVNEDYIPDELCKVTGISKPILVFTTRKILPKVLEVKDRTNYIKRIIILDSEENLLGCESLHNFMSRYSDNNLQTFKPLHYDPVDQVAAILCSSGTTGLPKGVMQTHRNICVRLTHASDPRVGTQLIPGVSVLAYLPFFHAFGFSINLGYFMVGLRVVMLRRFNQEVFLKAIQDYEVRSVINVPSTILFLSKSPLVDKYDLSTLAELCCGAAPLAKEVAEIAVKRLNLPGIRCGYGLTESTSANIHTLHNEFKSGSLGKVTPYMAAKIIDRNTGEALGPNQVGELCIWGPMVTKGYVNNPQATKEAIDDDGWLHSGDFGYYDEDEYFYIVDRYKELIKYKGYQVAPVELEEILLQHPGIRDVAVVGIPDIEAGELPAGFVVKQPGAQLTAKEVYDFLAQRVSHSKYLRGGVRFVDSIPRNVTGKISRKELREALMEKASKL
modifications: Pyrearinus termitilluminans
For B1, the entries for the “luminescence intensity relative to wild-type luciferase” value in series [1] and in series [2] were “about 100 times” and “about 150 times”, respectively. The “luminescence intensity relative to firefly luciferase derived from Photinus pyralis” value in series [3] was no less than 15 times. Further, in series [4], the “bioluminescence signal of cells compared with firefly luciferase” value was “clearly emit strong signals”. In addition, the “luminescence intensity relative to conventional luciferase” value with HeLa S3 cells is 15 times. Further, in series [5], the “variation of luminescence activity due to pH compared with firefly luciferase” value is reported as “variation due to the pH values is smaller”.
